# Results taken from patent US8101379B2, “Preparation of low bleeding anticoagulant fusion protein and its use” (Institute of Radiation Medicine Academy of Military Medical …, priority 2006, dated 2012).
# T1: EPR-HV2 (EH), hirudin HV2 with EPR linked to its N-terminus
# T1 sequence: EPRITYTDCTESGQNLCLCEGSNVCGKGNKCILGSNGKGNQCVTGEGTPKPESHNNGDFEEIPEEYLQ
# T2: GVYAR-HV2 (GH), hirudin HV2 with GVYAR linked to its N-terminus
# T2 sequence: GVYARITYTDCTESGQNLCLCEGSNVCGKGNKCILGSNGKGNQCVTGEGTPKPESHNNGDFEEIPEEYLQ
# B1: GH: hirudin (HV2) linked at its amino-terminal with the oligopeptide GVYAR recognizable and cleavable by both thrombin and coagulation factor Xa (protein)
# chain: T2 sequence
# modifications: ends and bridges not checked
# notes: hirudin (HV2) linked at its amino-terminal with the oligopeptide GVYAR recognizable and cleavable by both thrombin and coagulation factor Xa
# B2: EH: hirudin (HV2) linked at its amino-terminal with the oligopeptide EPR recognizable and cleavable by both coagulation factors XIa and Xa (protein)
# chain: T1 sequence
# modifications: ends and bridges not checked
# notes: hirudin (HV2) linked at its amino-terminal with the oligopeptide EPR recognizable and cleavable by both coagulation factors XIa and Xa
# Tests used:
# [1] = tested on: T1, EPR-HV2 (EH), hirudin HV2 with EPR linked to its N-terminus
# [2] = tested on: TH, hirudin linked at its amino-terminal with an oligopeptide recognizable and cleavable by thrombin
# [3] = tested on: FH, hirudin linked at its amino-terminal with an oligopeptide recognizable and cleavable by blood coagulation factor Xa
# [4] = tested on: T2, GVYAR-HV2 (GH), hirudin HV2 with GVYAR linked to its N-terminus
# [5] = tested on: rat carotid artery thrombosis model; experiment: Time needed for thrombogenesis in rat carotid artery thrombosis model; assay type: in vivo; details: for Time needed for thrombogenesis: rat carotid artery, X ± SD, 10 animals; for time needed for thrombogenesis (in words): rat carotid artery thrombosis model, statement on table 2
# Text: (§1) (1) Analyses of GH, EH, FH and TH antithrombotic and hemorrhagic side-effects in rat carotid artery thrombosis model, and the results were listed in table 2 and 3.
# [6] = tested on: rat carotid artery thrombosis model; experiment: Plasma TT levels in rat carotid artery thrombosis model; assay type: in vivo; details: NS group = 100%, X ± SD
# Text: as §1
# [7] = tested on: tail-cut mouse; experiment: Bleeding time in hemorrhagic model of tail-cut mouse; assay type: in vivo; details: for Bleeding time: X ± SD, 15 animals; for influence on hemorrhagic indexes compared with HV2 (in words): statement on table 3 and 4
# Procedure: (2) The hemorrhagic side-effects of GH, EH, TH and FH in hemorrhagic model of tail-cut mouse were analyzed, and the results were listed in Table 4.
# [8] = molecular target: thrombin (Homo sapiens, UniProt P00734); experiment: Anticoagulation activity by fibrin-clot method before and after cleavage by thrombin; assay type: biochemical
# Procedure: (§2) EH, GH, FH and TH were cleaved respectively by thrombin, FXa and FXIa, then the activities of anticoagulation were assayed by fibrin-clot method.
# [9] = molecular target: FXIa (Homo sapiens, UniProt P03951); experiment: Anticoagulation activity by fibrin-clot method before and after cleavage by FXIa; assay type: biochemical
# Procedure: as §2
# [10] = molecular target: FXa (Homo sapiens, UniProt P00742); experiment: Anticoagulation activity by fibrin-clot method before and after cleavage by FXa; assay type: biochemical
# Procedure: as §2
# Chain of FXIa (P03951 388-625 limits assumed): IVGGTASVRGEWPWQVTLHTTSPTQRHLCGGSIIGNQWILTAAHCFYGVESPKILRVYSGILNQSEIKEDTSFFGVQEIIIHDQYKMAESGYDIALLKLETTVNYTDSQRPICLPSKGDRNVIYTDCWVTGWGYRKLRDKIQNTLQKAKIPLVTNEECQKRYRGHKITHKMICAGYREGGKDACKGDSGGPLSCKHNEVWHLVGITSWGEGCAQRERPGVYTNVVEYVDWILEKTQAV
# Chain of FXIa (P03951 19-387 partner limits assumed): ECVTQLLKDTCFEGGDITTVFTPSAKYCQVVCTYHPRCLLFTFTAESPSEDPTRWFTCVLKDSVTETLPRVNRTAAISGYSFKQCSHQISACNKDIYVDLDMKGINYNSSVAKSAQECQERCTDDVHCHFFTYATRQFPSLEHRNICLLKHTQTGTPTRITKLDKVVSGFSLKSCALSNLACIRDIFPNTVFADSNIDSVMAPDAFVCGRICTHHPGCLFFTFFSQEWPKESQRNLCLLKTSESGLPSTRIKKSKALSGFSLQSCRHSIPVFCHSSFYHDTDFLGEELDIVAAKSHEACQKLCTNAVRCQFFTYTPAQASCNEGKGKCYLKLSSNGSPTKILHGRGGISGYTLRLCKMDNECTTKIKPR
# Chain of FXa (P00742 235-488 limits assumed): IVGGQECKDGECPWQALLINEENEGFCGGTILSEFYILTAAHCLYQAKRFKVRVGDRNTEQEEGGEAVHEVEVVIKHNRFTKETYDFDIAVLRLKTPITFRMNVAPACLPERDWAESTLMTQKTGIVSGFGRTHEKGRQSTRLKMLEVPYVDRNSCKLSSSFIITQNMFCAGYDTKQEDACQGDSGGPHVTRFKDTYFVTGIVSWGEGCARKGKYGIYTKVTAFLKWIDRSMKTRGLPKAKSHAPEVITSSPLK
# Chain of FXa (P00742 41-179 partner limits assumed): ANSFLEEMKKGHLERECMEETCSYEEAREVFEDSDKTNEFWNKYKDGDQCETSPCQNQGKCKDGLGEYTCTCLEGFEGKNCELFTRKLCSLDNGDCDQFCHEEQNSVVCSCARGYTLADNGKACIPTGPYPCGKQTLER
Molecule,anticoagulation activity (fibrin-clot method) after 3 h of cleavage [1],anticoagulation activity (fibrin-clot method) after 6 h of cleavage [1],anticoagulation activity (fibrin-clot method) at 0 h of cleavage [1],anticoagulation activity (fibrin-clot method) after 3 h of cleavage [2],anticoagulation activity (fibrin-clot method) after 6 h of cleavage [2],anticoagulation activity (fibrin-clot method) at 0 h of cleavage [2],anticoagulation activity (fibrin-clot method) after 3 h of cleavage [3],anticoagulation activity (fibrin-clot method) after 6 h of cleavage [3],anticoagulation activity (fibrin-clot method) at 0 h of cleavage [3],anticoagulation activity (fibrin-clot method) after 3 h of cleavage [4],anticoagulation activity (fibrin-clot method) after 6 h of cleavage [4],anticoagulation activity (fibrin-clot method) at 0 h of cleavage [4],"recognition and cleavage, read by release of anticoagulation activity [4]","recognition and cleavage, read by release of anticoagulation activity [1]",Time needed for thrombogenesis ([5]; 2 mg/kg) [s],% of TT changes ([6]; 2 mg/kg) [%],"Bleeding time ([7]; tail-cut mouse, 1.5 mg/kg) [s]",anticoagulation activity ([8]; 0 h),anticoagulation activity ([8]; 3 h),anticoagulation activity ([8]; 6 h),further results
blood coagulation factor XIa,256,512,0,0,64,0,0,0,0,0,0,0,GH can be recognizable and cleavable by two blood coagulation factors of FXIa and FXa respectively,,,,,,,,
blood coagulation factor Xa,64,128,0,32,64,0,64,128,0,64,128,0,GH can be recognizable and cleavable by two blood coagulation factors of FXIa and FXa respectively,EH can be recognizable and cleavable by two blood coagulation factors of thrombin and FXa respectively,,,,,,,"recognition and cleavage, read by release of anticoagulation activity [3]: while FH only by FXa"
"hirudin [HV2, reference compound]",,,,,,,,,,,,,,,1117.00 ± 243.95,1005.62 ± 361.28,1532.5 ± 420.74,,,,
thrombin,0,0,0,0,0,0,2,8,0,2,8,0,,EH can be recognizable and cleavable by two blood coagulation factors of thrombin and FXa respectively,,,,,,,"recognition and cleavage, read by release of anticoagulation activity [2]: TH only by thrombin"
B1,,,,,,,,,,,,,,,918.10 ± 204.16,104.35 ± 17.21,165.46 ± 142.42,0,2,8,"anticoagulation activity ([9]; 0 h): 0; anticoagulation activity ([9]; 3 h): 0; anticoagulation activity ([9]; 6 h): 0; time needed for thrombogenesis (in words) [5]: prolonged in a dose-dependent manner; Time needed for thrombogenesis ([5]; 4 mg/kg): 1006.7 ± 227.37 s; anticoagulation activity ([10]; 0 h): 0; anticoagulation activity ([10]; 3 h): 64; anticoagulation activity ([10]; 6 h): 128; % of TT changes ([6]; 4 mg/kg): 114.94 ± 19.82 %; influence on hemorrhagic indexes compared with HV2 (in words) [7]: less than that of HV2; Bleeding time ([7]; tail-cut mouse, 6 mg/kg): 304 ± 178.99 s; bleeding time compared with FH and TH (in words) ([7]; tail-cut mouse, statement): significantly shorter bleeding time than that of FH and TH group"
B2,,,,,,,,,,,,,,,964.10 ± 179.68,108.41 ± 12.95,203.89 ± 97.41,0,0,0,"anticoagulation activity ([9]; 0 h): 0; anticoagulation activity ([9]; 3 h): 256; anticoagulation activity ([9]; 6 h): 512; time needed for thrombogenesis (in words) [5]: prolonged in a dose-dependent manner; Time needed for thrombogenesis ([5]; 4 mg/kg): 1083.90 ± 227.10 s; anticoagulation activity ([10]; 0 h): 0; anticoagulation activity ([10]; 3 h): 64; anticoagulation activity ([10]; 6 h): 128; % of TT changes ([6]; 4 mg/kg): 121.81 ± 13.68 %; influence on hemorrhagic indexes compared with HV2 (in words) [7]: less than that of HV2; Bleeding time ([7]; tail-cut mouse, 6 mg/kg): 338.77 ± 169.08 s"
